Measurements reported in the Human Domainome abundance scans (Beltran et al. 2025).
± gives the uncertainty stated by the source.

B1: Receptor-interacting serine/threonine-protein kinase 2, residues 438 to 518; numbered along this chain, O43353 (parent)
chain: QWIQSKREDIVNQMTEACLNQSLDALLSRDLIMKEDYELVSTKPTRTSKVRQLLDTTDIQGEEFAKVIVQKLKDNKQMGLQ

Variants of: B1
Experiment: abundance fitness (aPCA) (normalised: wild type 0, dead -1); higher = more abundant; growth selection in yeast, the domain comes from the species named
Conditions: Homo sapiens

Compared with QWIQSKREDIVNQMTEACLNQSLDALLSRDLIMKEDYELVSTKPTTTSKVRQLLDTTDIQGEEFAKVIVQKLKDNKQMGLQ [R46T], QWIQSKREDIVNQMTEACLNQSLDALLSRDLIMKEDYELVSTKPTCTSKVRQLLDTTDIQGEEFAKVIVQKLKDNKQMGLQ [R46C] is lower in abundance fitness: 0.02 ± 0.091 for the first, -0.285 ± 0.079 for the second.

Compared with QWIQSKREDIVNQMTEACLNQSLDALLSRDLIMKEDYELVSTKPTLTSKVRQLLDTTDIQGEEFAKVIVQKLKDNKQMGLQ [R46L], QWIQSKREDIVNQMTEACLNQSLDALLSRDLIMKEDYELVSTKPTATSKVRQLLDTTDIQGEEFAKVIVQKLKDNKQMGLQ [R46A] is lower in abundance fitness: 0.143 ± 0.037 for the first, -0.674 ± 0.11 for the second.

QWIQSKREDIVNQMTEACLNQSLDALLSRDLIMKEDYELVSTKPTITSKVRQLLDTTDIQGEEFAKVIVQKLKDNKQMGLQ [R46I] and QWIQSKREDIVNQMTEACLNQSLDALLSRDLIMKEDYELVSTKPTHTSKVRQLLDTTDIQGEEFAKVIVQKLKDNKQMGLQ [R46H] are within error of each other in abundance fitness: 0.007 ± 0.15 for the first, -0.012 ± 0.11 for the second.

Going from QWIQSKREDIVNQMTEACLNQSLDALLSRDLIMKEDYELVSTKPTETSKVRQLLDTTDIQGEEFAKVIVQKLKDNKQMGLQ [R46E] to QWIQSKREDIVNQMTEACLNQSLDALLSRDLIMKEDYELVSTKPTGTSKVRQLLDTTDIQGEEFAKVIVQKLKDNKQMGLQ [R46G], the abundance fitness falls from -0.214 ± 0.16 to -0.596 ± 0.054.

QWIQSKREDIVNQMTEACLNQSLDALLSRDLIMKEDYELVSTKPTNTSKVRQLLDTTDIQGEEFAKVIVQKLKDNKQMGLQ [R46N] and QWIQSKREDIVNQMTEACLNQSLDALLSRDLIMKEDYELVSTKPTMTSKVRQLLDTTDIQGEEFAKVIVQKLKDNKQMGLQ [R46M] are within error of each other in abundance fitness: -0.288 ± 0.22 for the first, -0.411 ± 0.12 for the second.

QWIQSKREDIVNQMTEACLNQSLDALLSRDLIMKEDYELVSTKPTDTSKVRQLLDTTDIQGEEFAKVIVQKLKDNKQMGLQ [R46D] and QWIQSKREDIVNQMTEACLNQSLDALLSRDLIMKEDYELVSTKPTFTSKVRQLLDTTDIQGEEFAKVIVQKLKDNKQMGLQ [R46F] are within error of each other in abundance fitness: -0.221 ± 0.088 for the first, -0.447 ± 0.14 for the second.

QWIQSKREDIVNQMTEACLNQSLDALLSRDLIMKEDYELVSTKPTPTSKVRQLLDTTDIQGEEFAKVIVQKLKDNKQMGLQ [R46P] and QWIQSKREDIVNQMTEACLNQSLDALLSRDLIMKEDYELVSTKPQRTSKVRQLLDTTDIQGEEFAKVIVQKLKDNKQMGLQ [T45Q] are within error of each other in abundance fitness: -0.519 ± 0.1 for the first, -0.652 ± 0.1 for the second.

QWIQSKREDIVNQMTEACLNQSLDALLSRDLIMKEDYELVSTKPARTSKVRQLLDTTDIQGEEFAKVIVQKLKDNKQMGLQ [T45A] and QWIQSKREDIVNQMTEACLNQSLDALLSRDLIMKEDYELVSTKPWRTSKVRQLLDTTDIQGEEFAKVIVQKLKDNKQMGLQ [T45W] are within error of each other in abundance fitness: -0.476 ± 0.082 for the first, -0.571 ± 0.1 for the second.

First: QWIQSKREDIVNQMTEACLNQSLDALLSRDLIMKEDYELVSTKPERTSKVRQLLDTTDIQGEEFAKVIVQKLKDNKQMGLQ [T45E]
Second: QWIQSKREDIVNQMTEACLNQSLDALLSRDLIMKEDYELVSTKPYRTSKVRQLLDTTDIQGEEFAKVIVQKLKDNKQMGLQ [T45Y]
The abundance fitness of the first is higher: -0.364 ± 0.25 for the first, -1.11 ± 0.47 for the second.

QWIQSKREDIVNQMTEACLNQSLDALLSRDLIMKEDYELVSTKPKRTSKVRQLLDTTDIQGEEFAKVIVQKLKDNKQMGLQ [T45K] and QWIQSKREDIVNQMTEACLNQSLDALLSRDLIMKEDYELVSTKPIRTSKVRQLLDTTDIQGEEFAKVIVQKLKDNKQMGLQ [T45I] are within error of each other in abundance fitness: -0.999 ± 0.24 for the first, -0.87 ± 0.21 for the second.

Going from QWIQSKREDIVNQMTEACLNQSLDALLSRDLIMKEDYELVSTKPRRTSKVRQLLDTTDIQGEEFAKVIVQKLKDNKQMGLQ [T45R] to QWIQSKREDIVNQMTEACLNQSLDALLSRDLIMKEDYELVSTKPNRTSKVRQLLDTTDIQGEEFAKVIVQKLKDNKQMGLQ [T45N], the abundance fitness rises from -0.879 ± 0.07 to -0.011 ± 0.23.

Compared with QWIQSKREDIVNQMTEACLNQSLDALLSRDLIMKEDYELVSTKPLRTSKVRQLLDTTDIQGEEFAKVIVQKLKDNKQMGLQ [T45L], QWIQSKREDIVNQMTEACLNQSLDALLSRDLIMKEDYELVSTKPCRTSKVRQLLDTTDIQGEEFAKVIVQKLKDNKQMGLQ [T45C] is higher in abundance fitness: -0.696 ± 0.069 for the first, -0.308 ± 0.11 for the second.

QWIQSKREDIVNQMTEACLNQSLDALLSRDLIMKEDYELVSTKPHRTSKVRQLLDTTDIQGEEFAKVIVQKLKDNKQMGLQ [T45H] and QWIQSKREDIVNQMTEACLNQSLDALLSRDLIMKEDYELVSTKPVRTSKVRQLLDTTDIQGEEFAKVIVQKLKDNKQMGLQ [T45V] are within error of each other in abundance fitness: -0.568 ± 0.22 for the first, -0.56 ± 0.083 for the second.

Going from QWIQSKREDIVNQMTEACLNQSLDALLSRDLIMKEDYELVSTKPPRTSKVRQLLDTTDIQGEEFAKVIVQKLKDNKQMGLQ [T45P] to QWIQSKREDIVNQMTEACLNQSLDALLSRDLIMKEDYELVSTKPDRTSKVRQLLDTTDIQGEEFAKVIVQKLKDNKQMGLQ [T45D], the abundance fitness rises from -0.579 ± 0.092 to 0.029 ± 0.14.

QWIQSKREDIVNQMTEACLNQSLDALLSRDLIMKEDYELVSTKVTRTSKVRQLLDTTDIQGEEFAKVIVQKLKDNKQMGLQ [P44V] and QWIQSKREDIVNQMTEACLNQSLDALLSRDLIMKEDYELVSTKNTRTSKVRQLLDTTDIQGEEFAKVIVQKLKDNKQMGLQ [P44N] are within error of each other in abundance fitness: -0.214 ± 0.071 for the first, -0.196 ± 0.29 for the second.

QWIQSKREDIVNQMTEACLNQSLDALLSRDLIMKEDYELVSTKWTRTSKVRQLLDTTDIQGEEFAKVIVQKLKDNKQMGLQ [P44W] and QWIQSKREDIVNQMTEACLNQSLDALLSRDLIMKEDYELVSTKTTRTSKVRQLLDTTDIQGEEFAKVIVQKLKDNKQMGLQ [P44T] are within error of each other in abundance fitness: -0.483 ± 0.1 for the first, -0.283 ± 0.1 for the second.

QWIQSKREDIVNQMTEACLNQSLDALLSRDLIMKEDYELVSTKKTRTSKVRQLLDTTDIQGEEFAKVIVQKLKDNKQMGLQ [P44K] and QWIQSKREDIVNQMTEACLNQSLDALLSRDLIMKEDYELVSTKQTRTSKVRQLLDTTDIQGEEFAKVIVQKLKDNKQMGLQ [P44Q] are within error of each other in abundance fitness: -0.298 ± 0.16 for the first, -0.169 ± 0.11 for the second.
